From patent publication US20200157519A1 (IMMUNWORK, published 2020)

What was measured:
[1] = target: T1, crosslinked human fibrin treated by human factor XIIIa (human, UniProt P02671 36-629; P02675 45-491; P02679 27-437, crosslinked by factor XIIIa); experiment: ELISA after storage at 4 C for 3 or 6 days, HRP-protein L
T1 construct: Coated human fibrinogen treated with thrombin and 0.55 ug factor XIIIa (Zedira) per well; also called crosslinked fibrin
T1 sequence (looked up) 1: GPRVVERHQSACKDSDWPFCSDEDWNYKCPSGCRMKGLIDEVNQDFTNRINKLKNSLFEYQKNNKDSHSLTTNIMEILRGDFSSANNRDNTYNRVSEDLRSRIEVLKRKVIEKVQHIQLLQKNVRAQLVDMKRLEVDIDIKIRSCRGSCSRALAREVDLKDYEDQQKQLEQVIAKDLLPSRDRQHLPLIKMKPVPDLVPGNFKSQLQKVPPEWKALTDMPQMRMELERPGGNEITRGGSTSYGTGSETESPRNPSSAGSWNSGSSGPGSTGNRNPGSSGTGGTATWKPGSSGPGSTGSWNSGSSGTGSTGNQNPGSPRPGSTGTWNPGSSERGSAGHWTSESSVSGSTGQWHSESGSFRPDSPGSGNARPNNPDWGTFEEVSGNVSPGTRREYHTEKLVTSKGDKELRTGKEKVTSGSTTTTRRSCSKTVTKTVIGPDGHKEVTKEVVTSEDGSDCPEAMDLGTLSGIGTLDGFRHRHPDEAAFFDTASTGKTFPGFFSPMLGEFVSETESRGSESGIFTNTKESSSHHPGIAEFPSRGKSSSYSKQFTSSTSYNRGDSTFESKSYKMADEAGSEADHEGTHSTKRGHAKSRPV
T1 sequence (looked up) 2: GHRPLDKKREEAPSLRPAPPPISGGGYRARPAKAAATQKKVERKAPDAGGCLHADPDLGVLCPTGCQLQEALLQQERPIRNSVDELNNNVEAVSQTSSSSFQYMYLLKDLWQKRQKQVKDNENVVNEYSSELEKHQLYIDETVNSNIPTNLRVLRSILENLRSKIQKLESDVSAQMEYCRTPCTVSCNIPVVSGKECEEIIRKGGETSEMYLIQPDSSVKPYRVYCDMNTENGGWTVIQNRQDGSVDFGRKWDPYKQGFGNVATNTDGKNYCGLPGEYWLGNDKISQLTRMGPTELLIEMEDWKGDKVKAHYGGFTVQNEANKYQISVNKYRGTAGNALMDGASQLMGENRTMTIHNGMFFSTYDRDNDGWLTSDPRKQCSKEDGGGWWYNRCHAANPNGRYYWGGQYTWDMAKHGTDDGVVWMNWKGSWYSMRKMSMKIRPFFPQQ
T1 sequence (looked up) 3: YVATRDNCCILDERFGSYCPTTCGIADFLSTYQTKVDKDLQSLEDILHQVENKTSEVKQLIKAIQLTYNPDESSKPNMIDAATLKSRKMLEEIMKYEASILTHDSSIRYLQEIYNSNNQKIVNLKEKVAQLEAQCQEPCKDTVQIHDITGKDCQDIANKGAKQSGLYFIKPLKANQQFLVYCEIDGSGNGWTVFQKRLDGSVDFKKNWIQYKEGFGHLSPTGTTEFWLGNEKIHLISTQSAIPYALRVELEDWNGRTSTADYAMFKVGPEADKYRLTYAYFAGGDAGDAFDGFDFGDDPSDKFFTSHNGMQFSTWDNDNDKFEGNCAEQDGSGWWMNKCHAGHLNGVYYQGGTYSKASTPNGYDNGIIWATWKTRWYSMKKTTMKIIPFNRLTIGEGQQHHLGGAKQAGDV
Procedure: (§1) To evaluate the stability of reteplase-(3D5 scFv) after storage, the reteplase-(3D5 scFv) was stored at 4° C. for 3, 6 and 30 days, and then SDS-PAGE and ELISA analysis were performed.
(§2) 96-well polystyrene microplates were coated with human fibrinogen (Sigma) (20 μg/mL) in PBS buffer (100 μL/well). After overnight incubation at 4° C., the coated wells were washed with PBS buffer. To induce the cross-linking of human fibrin, coated wells was incubated at 37° C. for 1 hour with human α-thrombin (Sigma) at a final concentration of 1 U/mL in TBS buffer with 2 mM CaCl₂ and 7 mM L-cystine (Merck). After blocking the wells with a blocking buffer (5% non-fat dry milk/PBS), 100 μL of reteplase-(3D5-scFv) at a final concentration of 0.1, 1 and 10 μg/mL were added to each well and incubate at room temperature for 1 hour. Thereafter, the plates were washed three times, and HRP-conjugated protein L diluted to 1/5000 was added to the wells and incubated for 1 hour at room temperature. The wells were washed three times and added with 100 μL of 3,3′,5,5′-Tetramethylbenzidine (TMB) substrate buffer. 5 minutes later, the color development was stopped with 1 M HCl. The optical density (OD) was measured at 450 nm using a microplate reader (Molecular Devices) and the data were processed using Graph Pad Prism software. […]

[2] = target: T2, human fibrin (human fibrinogen coated on the plate and treated with thrombin) (human, UniProt P02671 36-629; P02675 45-491; P02679 27-437); experiment: as above
T2 construct: Made on the plate: coated human fibrinogen (Sigma) treated with 1.0 U/mL thrombin, CaCl2 and L-cysteine
T2 sequence (looked up) 1: T1 sequence (looked up) 1
T2 sequence (looked up) 2: T1 sequence (looked up) 2
T2 sequence (looked up) 3: T1 sequence (looked up) 3
Procedure: as §1, §2

binding result [1]: binds
binding result [2]: binds
B1: recombinant reteplase-(3D5 VL-218-VH scFv α fibrin) protein (other)
chain: SYQGNSDCYFGNGSAYRGTHSLTESGASCLPWNSMILIGKVYTAQNPSAQALGLGKHNYCRNPDGDAKPWCHVLKNRRLTWEYCDVPSCSTCGLRQYSQPQFRIKGGLFADIASHPWQAAIFAKHRRSPGERFLCGGILISSCWILSAAHCFQERFPPHHLTVILGRTYRVVPGEEEQKFEVEKYIVHKEFDDDTYDNDIALLQLKSDSSRCAQESSVVRTVCLPPADLQLPDWTECELSGYGKHEALSPFYSERLKEAHVRLYPSSRCTSQHLLNRTVTDNMLCAGDTRSGGPQANLHDACQGDSGGPLVCLNDGRMTLVGIISWGLGCGQKDVPGVYTKVTNYLDWIRDNMRPASGGGGSGGGGSGGGGSDIQMTQSPSSLSASVGDRVTITCRASQDVSNNVAWYQQKPGKAPKLLIFWSPWLYSGVPSRFSGSGSGTDFTLTISSLQPEDFATYYCQQGWDSPVTFGQGTKVEIKRGSTSGSGKPGSGEGSTKGEVQLVESGGGLVQPGGSLRLSCAASGFTISDFGIHWVRQAPGKGLEWVASIWPSGGYTYYADSVKGRFTISADTSKNTAYLQMNSLRAEDTAVYYCARSWFYSWYDYWGQGTLVTVSS
notes: Fusion: reteplase, flexible linker, 3D5 VL, 218 linker, 3D5 VH; also called reteplase-(3D5 scFv); reteplase-(3D5-scFv)
